Consider 20 sequences from the DeepSol protein solubility set.

A short description of the series: soluble on expression in E. coli; label from the status in PepcDB or PDB records.
For the sequence “MGSDKIHHHHHHMDTLTRIRAFIDVVEAEGFSAAARKTGRSKALLSKYVRELEDELGALLLNRTTRQFSMTEAGHTYYRSAADILKEIDNLADLVRENNVGISGKIRITVPRSFTDAEVGQSLIDFALQHPDLSIEIVAEDRFVDLIEEGFDLAIRVTKLEDSGMIARKLADFRSYACASPVFLEKYGPLTHPQDLSKVPVLIDTNTRGHNSLRLRQPDGEAFTVNISGPLEVNSPQTTLRGALSGLGIALLPDFVARRHIESGALISIFEDYMPSGSGIYAVYPHRRYLPAKVRALVDFMHNWFKRNGTCQPKQGTPPSE”, the “soluble on expression in E. coli” value was “not soluble”.
As for “MPRLLPVDSCDTEEYTLTEPPRNPQEYLRFVQREASLCPDVVVAQIDPKKLKKQSVNVSITGCLAAPEGFSPSFKWQQQQVSRFSEVRQSVNKHRQHWKAQFLDDNVVMPKTEDEDGWKRFCLGENVCLEIQLKEEDGVNPGLDYVKTGFPPFLSIVSKLSQSTVSAVLEYLINWFEERAFVPQLGRWLYALLACLEKPLLPEAHSLIRQLARRCSAVRANLESKDDDRLSALNLMICIVARYFEQNDLADKE”, the “soluble on expression in E. coli” value is “soluble”.
In the case of “MSLGQNRLELLLFRLDGQQLYGINVFKVREVLQCPQLTLMPKSSPVVCGVANIRGATIPILDLAMATGSGALKDKNSPFVIITEYNTKTQGFLVRSVERIVNMNWEEIHPPPKGTGRDHYLTAVTRVDNQLVEIIDVEKVLAEVAPTPEAISVGVVDVETQSKALSLRVLTVDDSSVARKQVTRCLQTVGVEVVALNDGRQALDYLRKLVDEGKKPEEEFLMMISDIEMPEMDGYTLTAEIRSDPRMQKLHIILHTSLSGVFNQAMVKKVGADDFLAKFRPDDLASRVVDRIKAADISEGHHHHHH”, the “soluble on expression in E. coli” value is recorded as “soluble”.
The value for “SLARMSRRSRGAAGAQSVVKPETPMAQVLHQFNYCPCQYLEQNWIVPKQPWLLNLDGWRDNPNFNLWCLEEWALAPVPETAFNKPHHSLALLPPDALSTLMLTIGGALHSFAMRQVVLKKPKQCLNNVFGLDIARFLIQQGPMLLSQWPKGWQKALPDVMKEDEVERHMLKQGYAWMKFILASSSHDILLRWQFKLDQSLSQVKENTSWLVEEQRDLAYRLTKKIAKQVIPQWFHLLK” was “soluble”; that for “MTVDSSMSSGYCSLDEELEDCFFTAKTTFFRNAQSKHLSKNVCKPVEETQRPPTLQEIKQKIDSYNTREKNCLGMKLSEDGTYTGFIKVHLKLRRPVTVPAGIRPQSIYDAIKEVNLAATTDKRTSFYLPLDAIKQLHISSTTTVSEVIQGLLKKFMVVDNPQKFALFKRIHKDGQVLFQKLSIADRPLYLRLLAGPDTEVLSFVLKENETGEVEWDAFSIPELQNFLTILEKEEQDKIQQVQKKYDKFRQKLEEALRESQGKPG” was “not soluble”.
Turning to “MIQIRPMTPEDFDRFWPTFQAVVVAQETYAYDPALTQEQACDVWLKLPLHTLIAEEDGQLLGSYYLKANAAGPGNHVCNCGYMVTDAALGRGVARLMCEHSQQLARDSGFLAMQFNSVVASNEVAVALWAKLGFETVGRLPKAYRHARLGLVDCLVMFKWLADAPIAAEPVQPKLIGRKNIESVVSRPRRK”, the “soluble on expression in E. coli” value is reported as “not soluble”.
For “MTEDALNRIADALERMAPAPLRAPDFAVAPAFVWHVAPERLEPVRDVNRVDLDLLVGINRARDTLLDNTRRFAAGHGANNALLWGARGMGKSSLVKAVHGALQPEFPNLKLVELQREDLPSVARLLNHLRAAPERFILFCDDLSFSHDDQHYKSLKAVLDGGIEGRPENVVFYATSNRRHLMPRDMIENERSSAINPSEAVEEKVSLSDRFGLWLGFHPCDQDEYLAMIDGYCAAYGVSVAPDTLRAEAIEWQATRGARSGRVAWQFFTDLAGRQGIALRLEHHHHHH”, the “soluble on expression in E. coli” value is “soluble”.
The value for “MAHHHHHHMIGKIFDNAFRIRTYNRFVCFLIGGTFAYSFSNPDMDTVYDLFPIFKQNKYAYLTFLEVNEKHSNVFEERLKDLCRFYQKQPGYLYTKIIKRIDNINDISKYIVISTWIKSENYLLACNRMYGQILINKIQNYAKYNSYLYRIVVDDSDYLPPI” was “not soluble”.
In the case of “MAFKFKTFAAVGALIGSLALAGCGQDEKDPNHIKVGVIVGAEQQVAEVAQKVAKEKYGLDVELVTFNDYVLPNEALSKGDIDANAFQHKPYLDQQIKDRGYKLVSVGKTFVYPIAGYSKKIKSLDELKDGSQVAVPNDPTNLGRSLLLLQKVGLIKLKDGVGLLPTSLDIVENPKNLKIVELEAPQLPRSLDDAQIALAVINTTYASQIGLTPAKDGIFVEDKDSPYVNLIVTREDNKDAENVKKFVQAYQSDEVYEAANKVFNGGAVKGWLEHHHHHH”, the “soluble on expression in E. coli” value is listed as “soluble”.
The value for “NKNFWLGVRGNFTYATGKYEYVEEPYRPYPWLSHIGKRIEQSYGLVAERLFIDEEDIANSPVQTYGEYMPGDIKYKDINNDGIINDEDIVPIGFAKSPEIVYGFGVSMGYKNFDISCFFQGAARSSFFINSKATNPFMQMDLGGNNLNGMMQAYADDYWSESNRNIYATFPRLSTTDIANNNRNSTWWLRDGSYLRLKSVEIGYTLPKRLTSHLGMSNLRIYASGLNLFAWNRFKLWDVEQGNDGMQYPIQAVYNFGINLSF” was “not soluble”.
The value for “MGSDKIHHHHHHMIKEIRQRIENFESDYVFTYQDLNLSPERSERVIKILNRLVAEGIIAKISKGRFYKPKKSVFGMLKPKLEEVVKDFLEKDGEVIGYMTGYLAFNRLGLTTQVPNIIQIGTNVRKNKTVRGMFTISFVIQSNPITKENIPLLQLLDAIKFIKEIPDTTTSQSCKCIMTIIQNLNKKDRDELLILAKKYPPMVRALLGAMVENIYGTNKALPLWNTLNPLTLYNVKIDKQVLPEVRKWRIQ” was “not soluble”.
On to “MHGESPIKRRESRKIWVGSVPVGGDAPIAVQSMTNSDTNDVAATVAQINRLEAAGVDIVRISVPDMDAAEAFGRIKQLVKVPLVADIHFDYRIALRVAELGVDCLRINPGNIGREDRVRAVVDAARDRGIPIRIGVNAGSLEKDLQKKYGEPTPEALVESALRHVEHLERLNFKDFKVSVKASDVFMAVAAYRLLAKQIVQPLHLGITEAGGLRSGTVKSAVGLGMLLAEGIGDTIRISLAADPVEEVKVGYDILKSLRLRSRGINFIACPSCSRQNFDVVKTMNELEGRLEDLLVPLDVAVIGCVVNGPGEAKEAHIGLTGGTPNLIYIDGKPAQKLTNDNLVDELERLIREKAAEKTAADASVIVRGLEHHHHHH”, for which the “soluble on expression in E. coli” value is recorded as “not soluble”.
As to “RKYAFEDVFRVGREDVNEMADRILNSLSSYKPRVGCIAFSGGVDSSLLAALYDAPLVSVTASDAEEEWLKTAARMLGKEIEILKVGESAIREVVDTVRKTIETGDFLQLSIAVPVYLTMQFAKSLGFTEIIFGQGADELFGGYKRYEGLSEHELEDALVKDLKSIGESNLVRDCKLAYKNEIKLVTPYLCWDVIDAALKIPPEYKVRREGGKVVRKYILRKIAEKFLPEEIAWRDKKAIQYSTGIAKI”, the “soluble on expression in E. coli” value is given as “not soluble”.
As to “MNQVEMTEFPVGKPQEALYGVASTPDGALWFTLAKGNAIGRLSPDGAVSRFPLPHTDGQPTTITCGPDGRPWFTLSSANAIGRLAPDGALRMFELPRPASRPFGIAGGHDGCLWFAEMAGDRIGRITIDGDIEEYDLPVKGGYPSCMAAGRDGLMWFTLNQAGAVGSISATAAPRIFPLGAADAAPVGIASDAQGALWIAQAGNGAIVRFDAGGRITEFPLHSRAARPHAIAADAAGNLWFTEWGANRIGRISEAGDLAGYELAAPGSEPHGIAIDPHGCVWAALETGRLVRLQASPRDLEHHHHHH”, the “soluble on expression in E. coli” value is reported as “soluble”.
The value for “MREAVIVAGARTPIGKAKRGSLKTVRPDDLGALVVKETLKRANYEGPIDDLIFGCAMPEAEQGLNMARNIGGLAGLSYDVPAITINRYCSSGLQSIAYGAERIMLGHSEAVLSGGAESMSLVPMMGHVVRPNSRLVEAAPEYYMGMGHTAEQVAVKYGISREEQDAFAVRSHQRAAKALAAGNFADETVSVDVTLRTVGANNKLQEETITFAQDEGVRAETTLDILGKLRPAFNVRGSVTAGNSSQMSDGAASVLLMDREKAVSDGMKPLAKFRSFAVAGVPPEVMGIGPIAAIPKALKLAGLELSDIGLFELNEAFASQSIQVIRELGLDEEKVNVNGGAIALGHPLGCTGAKLTLSLIHEMKRRNEQFGIVTMCIGGGMGAAGVFELL” was “not soluble”.
With “MQSVDVAIVGGGMVGLAVACGLQGSGLRVAVLEQRVPEPLAVDALPQLRVSAINAASEKLLTRLGVWQDILARRASCYHGMEVWDKDSFGHISFDDQSMGYSHLGHIVENSVIHYALWNKAQQSSDITLLAPTELQQVAWGENETFLTLKDGSMLTARLVIGADGANSWLRNKADIPLTFWDYQHHALVATIRTEEPHDAVARQVFHGEGILAFLPLSDPHLCSIVWSLSPEEAQRMQQASEDEFNRALNIAFDNRLGLCKVESARQVFPLTGRYACQFAAHRLALVGDAAHTIHPLAGQGVNLGFMDAAELIAELKRLHRQGKDIGQYIYLRRYERSRKHSAALMLAGMQGFRDLFSGANPAKKLLRDIGLKLADTLPGVKPQLIRQAMGLNDLPEWLRLEHHHHHH”, the “soluble on expression in E. coli” value was “soluble”.
Regarding “MPLEASELKPTAGPLEASELKPTAGPLEASELKPTAGPLEASELKPTAGPLEASELKPTAGPLEASELKPTAGPLEASELKPTAGMIVVYVFVYAFKAVKQYFYPSDNLKVLMHKFTDMVNFTINIMIEKNLTSRNSVSNEVYHKLKEYEIPSYYYIEAINKAVALVKTYRKRLKKKQKATVPHVEKPMLSTYYGFKIVGGNIMIPIANREYESIPLNAYVRDATSMVKVHSFALSAYTLSLTIGRDVDAIECTTTVGVDRNLRNITVGNEFHHEIYDLSNIVEIKQRYRKKESHFHRNDRRIREKILSKYGKRERNRVKQIMHETSKAIVSNASTKKEMIVLENIIGINQITKKGDGKGKDYRFLLKNAFPYGMLASQVMYKASWEGLPVIELTRKETRNTSRMCSVCGSLTRIEHGRILKCDSCGLEIDRDVNACINIAFRYRTCLKRSHKGLPGEAVKQSKDVEQMAGSQISMDILEHHHHHH”, the “soluble on expression in E. coli” value is on record as “not soluble”.
As for “MSLIEFNKKTNTLEQVQYKYTLQDVSEPNLYRDIFSYDEIPKCTFNHRKVPMAPPDEIWITDTTFRDGQQSRAPYTVEQIVHLYDLLHKLGGPKGIIRQCEFFLYSDRDKQAVYKCLERGYKYPEVTSWIRATKSDFQLAKDMGMKESGILVSCSDYHIFKKLNMTRKQALEHYMSIVKSAIEVGIRPRCHFEDITRADFYGFVVPFAIELRKLMEESGVPIKIRACDTLGYGVSYPGAALPRSVPGIIYGLRHYAGFPSELIEWHGHNDFYKAVCNAATAWLYGASAVNCSLLGIGERTGNTPLEAMVIEYAQLRGTTDSMDTTVITEIAEYYEKELGYQIPPRTPFVGKHFNVTQAGIHADGLLKDEEIYNIFDTAKLLNRPVGVAINQTSGLAGIAHWINSHFGLEGAKRIDKRDERIVKIKEWVDEQYKAGRVTSIGDDELEEVIRKLAPEIFDLALEGHHHHHH”, the “soluble on expression in E. coli” value is given as “soluble”.
Regarding “GSHMTYPKYLLSPETIEALRKPTFDVWLWEPNEMLSCLEHMYHDLGLVRDFSINPVTLRRWLFCVHDNYRNNPFHNFRHCFCVAQMMYSMVWLCSLQEKFSQTDILILMTAAICHDLDHPGYNNTYQINARTELAVRYNDISPLENHHCAVAFQILAEPECNIFSNIPPDGFKQIRQGMITLILATDMARHAEIMDSFKEKMENFDYSNEEHMTLLKMILIKCCDISNEVRPMEVAEPWVDCLLEEYFMQSDREKSEGLPVAPFMDRDKVTKATAQIGFIKFVLIPMFETVTKLFPMVEEIMLQPLWESRDRYEELKRIDDAMKELQKK”, the “soluble on expression in E. coli” value was “soluble”.
On to “MASLYLGLGFLVSMHSTKPEKADIIVILGGDDGLRVSKGGDLYKAGYAKHVLLTGIDSRYYRPNHPNWRERKLMARGVPRKHIIVDTWSETSWEEAENTSDLMDKNGWKSALVVSDPPHMLRLNKTWKKAFAGTNKRFRLVATEPSWWNPLLWWRNPISYRFVINELKKNIYYLVTYYLEHHHHHH”, for which the “soluble on expression in E. coli” value is on record as “not soluble”.
